In the supplement of paper PMC10724198:
± gives the standard deviation of the averaged measurements.

System: Saccharomyces cerevisiae
Test: protein stability index of tFT-peptide fusion (C-terminal peptide) (PSI (0-1 scale)); higher = more stable (slower turnover)
Settings: genetic background: wild type; temperature: 30 C
Description: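 Multiplexed protein stability (MPS) profiling in S. cerevisiae. Random 12-aa peptides (tFT-X12 library) are fused to the C-terminus of a sfGFP-mCherry tandem fluorescent timer, after mCherry and a GGGS linker. Cells are FACS-sorted into 8 mCherry/sfGFP bins and deep-sequenced. The protein stability index (PSI) is the read-weighted bin average, scaled from 0 (unstable) to 1 (stable). Only peptides with >10 reads are reported; cells were grown at 30 °C in SC-His with glucose.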
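Further: PSI is a weighted mean of sequencing reads over stability bins, variants kept only with over 10 reads, mCherry proximal and sfGFP distal, peptide attached via GGGS linker.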

Row | Sequence | protein stability index
1 | FLISSGPSVSVL | 0.623 ± 0.026
2 | PRPPAGSFPSSL | 0.7 ± 0.053
3 | PPSLLRPYPLLS | 0.66 ± 0.028
4 | FSHPQPLLPFPV | 0.662 ± 0.0094
5 | RGGEGVWVVGRV | 0.703 ± 0.075
6 | PVKTHPPPPPLP | 0.724 ± 0.024
7 | GSQSPKEEYHES | 0.632 ± 0.045
8 | PVPPSARHSSPP | 0.66 ± 0.021
9 | GGWWSCAWGVRG | 0.627 ± 0.065
10 | GAEKGSVPGGDK | 0.654 ± 0.05
11 | WGRNGRRMEVTK | 0.687 ± 0.017
12 | KKKMINQKKKKD | 0.649 ± 0.016
13 | FMSMSYDEWAYL | 0.721 ± 0.064
14 | AKKKEIQSTKHK | 0.705 ± 0.0093
15 | FLSGPCLLSFAS | 0.679 ± 0.12
16 | SGWRCSVAVLQV | 0.592 ± 0.033
17 | PVVLGVGMEGIS | 0.7137 ± 0.0068
18 | YKKVKADKKKRM | 0.687 ± 0.017
19 | GVQSSAPVKVRI | 0.6551 ± 0.0046
20 | CEHGGWYVGFCS | 0.7 ± 0.008
21 | DGVGRLADGRGI | 0.688 ± 0.013
22 | PPPPFRPSPPLP | 0.664 ± 0.0084
23 | TLLLLLPPLPSF | 0.598 ± 0.023
24 | HTYQAAFRSHAI | 0.6544 ± 0.00072
25 | RSPAPPAPPHLP | 0.7068 ± 0.0012

Row | Sequence | protein stability index
26 | AVRGYGCGGGTG | 0.6971 ± 0.0012
27 | PPPLPPPPPPPP | 0.673 ± 0.026
28 | SGVAYAVYLVFR | 0.472 ± 0.047
29 | SPVPVTFSLLTR | 0.698 ± 0.0082
30 | SASVLPSPLPPV | 0.708 ± 0.028
31 | RFALSCITPCIL | 0.661 ± 0.069
32 | RSSPAVPPSPRP | 0.6918 ± 0.0066
33 | LRIGTCYCGVAW | 0.814 ± 0.049
34 | VLSDFSFPFFVL | 0.669 ± 0.017
35 | REAGGSQVKRRL | 0.671 ± 0.12
36 | LGSSTGSVESLS | 0.737 ± 0.048
37 | IVLRRRKVTRRI | 0.68 ± 0.043
38 | WWGCRSVGVGLG | 0.675 ± 0.025
39 | CNEKVNRNGYKR | 0.69 ± 0.064
40 | SSVRPHPAPPHT | 0.701 ± 0.01
41 | NEIRNKETETVM | 0.665 ± 0.023
42 | VSYRLDMHFLYY | 0.6062 ± 0.0046
43 | VMNGGCFGWAVG | 0.628 ± 0.058
44 | LRVRLSVLLPLD | 0.578 ± 0.0093
45 | CGCCTSSPFVSQ | 0.687 ± 0.061
46 | LFSSSLISPLFA | 0.582 ± 0.025
47 | AGQWGCAGGGEW | 0.703 ± 0.013
48 | KIDQLDHVGLYS | 0.674 ± 0.015
49 | KSYRVGKMAAQR | 0.683 ± 0.012
50 | PPPPSPFPLPSP | 0.6846 ± 0.0024

Row | Sequence | protein stability index
51 | GDSPSGKPAERT | 0.661 ± 0.065
52 | GLLTFPPNRSGG | 0.67 ± 0.05
53 | SSSLLFVLGPSW | 0.715 ± 0.034
54 | QGGCAATRARGS | 0.631 ± 0.0033
55 | SSPIRPFLPPGY | 0.6709 ± 0.0049
56 | SRSISCPVLSKI | 0.707 ± 0.017
57 | DTEYVFLYSSQE | 0.7029 ± 0.0051
58 | RRLATRMGPCDA | 0.682 ± 0.011
59 | FYPLPSYFAYPI | 0.663 ± 0.022
60 | SPSTSPPPSSSS | 0.697 ± 0.042
61 | VLFSRFVFLGVL | 0.528 ± 0.0095
62 | VLAHCLFRCEKN | 0.6062 ± 0.001
63 | IPRRMFNIRKKR | 0.666 ± 0.036
64 | GTWEGDTSACAR | 0.636 ± 0.047
65 | PRSSHHPLPSPP | 0.676 ± 0.071
66 | SQAFPPADLRPR | 0.719 ± 0.058
67 | QTVSISGVPDGF | 0.6669 ± 0.001
68 | SRSKVVVHNSYW | 0.724 ± 0.14
69 | PPHFPPRPRPGP | 0.685 ± 0.015
70 | VCGGLGCSVVLE | 0.721 ± 0.078
71 | GKLLPCVRGRGL | 0.665 ± 0.024
72 | RGAHPCLDLRSE | 0.654 ± 0.067
73 | SATLRCASLSFC | 0.679 ± 0.014
74 | FFGFLLFCSRFS | 0.516 ± 0.016
75 | ELEIRSLCPDVV | 0.694 ± 0.024

Row | Sequence | protein stability index
76 | PAPHPRLTPIFL | 0.749 ± 0.11
77 | NRYRKNIKKRKK | 0.617 ± 0.028
78 | FGVQTFIGPTIV | 0.677 ± 0.012
79 | HLHAPSPPTLTL | 0.682 ± 0.013
80 | ASRFSLPLLSLL | 0.71 ± 0.14
81 | GYWPWGLARVDV | 0.698 ± 0.017
82 | VWRGGGVRLGRL | 0.75 ± 0.046
83 | PLPPRLPPPPPS | 0.72 ± 0.048
84 | GVFGWAGCGVVL | 0.7188 ± 0.0043
85 | RIRVKSLAPSPS | 0.74 ± 0.17
86 | ITNQVIRLSLSN | 0.732 ± 0.083
87 | DGTSKDSKWYMN | 0.747 ± 0.088
88 | LGGGAGLRCGGF | 0.673 ± 0.02
89 | GVGLDSMCVEGF | 0.723 ± 0.1
90 | FFWTTPRFPFPS | 0.725 ± 0.021
91 | KCLCGVHVRLRA | 0.5901 ± 0.0017
92 | GVLGCCGLAWRG | 0.697 ± 0.073
93 | GLNVLVWALLSQ | 0.548 ± 0.032
94 | RPVQRLVPLTPR | 0.706 ± 0.054
95 | MQLREIIMIEKS | 0.693 ± 0.043
96 | AEKSYRYIYGKT | 0.669 ± 0.029
97 | HKLYATANHSPM | 0.672 ± 0.1
98 | SICSIRPFSDLP | 0.683 ± 0.015
99 | DSRPLASAVRLS | 0.681 ± 0.017
100 | SDDGIRLLNQSF | 0.59 ± 0.095

Row | Sequence | protein stability index
101 | HLSDAGSPDGAN | 0.628 ± 0.063
102 | FLYDPVMLGLAC | 0.469 ± 0.053
103 | PPPPPTALLRPP | 0.731 ± 0.18
104 | LPLQPSSNLTCL | 0.70856 ± 0.00024
105 | GTRGGGGWSCES | 0.701 ± 0.06
106 | KGGCGAGRDGRG | 0.731 ± 0.026
107 | PPRPPSPPASRA | 0.77 ± 0.076
108 | PFFFLPPSRPRP | 0.671 ± 0.023
109 | EAVVVLVSRFGL | 0.695 ± 0.044
110 | PPVLRTPPAPLI | 0.681 ± 0.058
111 | GGHLTMMFGRLF | 0.713 ± 0.019
112 | GRGRWRGGVAVE | 0.802 ± 0.13
113 | PPPPLLPPPIPL | 0.6847 ± 0.0032
114 | SPWMSKNGQSSD | 0.622 ± 0.02
115 | FNRTRRLPLDSL | 0.7018 ± 0.0053
116 | GYLNWIDTRTSE | 0.79 ± 0.086
117 | MPGYLIRPPVIS | 0.709 ± 0.0078
118 | EMYEKLKSYIVK | 0.685 ± 0.013
119 | NNYRKKKHNYKK | 0.697 ± 0.011
120 | IRSVNFNIFVKR | 0.748 ± 0.057
121 | AGGQRCNWGNTI | 0.6778 ± 0.0053
122 | IADRLAAIPMRY | 0.669 ± 0.011
123 | RRKGRKTSMRNG | 0.667 ± 0.048
124 | GENLGGDVFNIG | 0.73 ± 0.0031
125 | PPVTAPPPPLRS | 0.692 ± 0.014

Row | Sequence | protein stability index
126 | LRPPPPPAQPFV | 0.69 ± 0.033
127 | LPPCPLFPPVHF | 0.757 ± 0.1
128 | DIRKAEISANFC | 0.59434 ± 2.4e-05
129 | PPPPPPPRPDPP | 0.557 ± 0.04
130 | FGCISAGLGWMY | 0.721 ± 0.048
131 | PPPLLPPRPLAP | 0.731 ± 0.019
132 | SSTALAFAPYLL | 0.6894 ± 0.005
133 | VGSSPYTVFVSG | 0.747 ± 0.11
134 | MAVYLKYSLLRL | 0.515 ± 0.037
135 | SFSQTFSSLSSP | 0.702 ± 0.054
136 | PPQGPVAPRKTP | 0.708 ± 0.018
137 | FWHERVSSTVKR | 0.731 ± 0.025
138 | DGGKRKQDSQKK | 0.683 ± 0.034
139 | PNRPPLQFFPPP | 0.697 ± 0.05
140 | HIPAFLSRFIHG | 0.685 ± 0.038
141 | FFSSHPCYFSTF | 0.69 ± 0.072
142 | TGLSFIRCLDFK | 0.688 ± 0.055
143 | ASFPPPPAAPPP | 0.673 ± 0.093
144 | LTPLPSRPPPLP | 0.683 ± 0.087
145 | GLCPCGDAISTR | 0.682 ± 0.053
146 | GEQGVLARSDRI | 0.589 ± 0.025
147 | GGGGGRAYSWWV | 0.699 ± 0.014
148 | IFVCRCFGFFGG | 0.681 ± 0.04
149 | QPPSPSLFFPRV | 0.704 ± 0.016
150 | RREASLGSYSFE | 0.69778 ± 0.00039

Row | Sequence | protein stability index
151 | PLPPPPPPPSTP | 0.784 ± 0.0098
152 | KKWRKKTEHDKE | 0.729 ± 0.028
153 | KKEAKRDKKSGR | 0.727 ± 0.12
154 | RQANQVSTSAEN | 0.726 ± 0.11
155 | AVAHLSCTSRFG | 0.6944 ± 0.0037
156 | RHLALSRPTPFP | 0.703 ± 0.04
157 | ARQHGLELTNPR | 0.678 ± 0.015
158 | AGVTGGDGYGRW | 0.583 ± 0.064
159 | PLFSLRPSIPFS | 0.72 ± 0.033
160 | KKKKKQEREKRN | 0.623 ± 0.037
161 | GALGCHPGLPSP | 0.714 ± 0.025
162 | HRVVGVTLSVPS | 0.71 ± 0.071
163 | GSDDLVSVSSAE | 0.708 ± 0.028
164 | GEAVAGRRQESP | 0.695 ± 0.073
165 | SLDRASPPTSVA | 0.625 ± 0.0007
166 | SPVPLPPPLPSL | 0.664 ± 0.023
167 | KKKENRQKREIQ | 0.647 ± 0.029
168 | SAQGPVLFSTGP | 0.716 ± 0.044
169 | VFDGSVSWARHD | 0.6529 ± 0.0053
170 | EDLFELPNSNFS | 0.73653 ± 0.00022
171 | PSPDLRAPSSVR | 0.731 ± 0.024
172 | RKGKARKKQKRI | 0.721 ± 0.1
173 | RLVRSPSRFSWR | 0.667 ± 0.031
174 | PSLPFPPTPPPC | 0.686 ± 0.11
175 | TTVAIPSINRYS | 0.671 ± 0.051

Row | Sequence | protein stability index
176 | FFSVLSAISFFF | 0.628 ± 0.06
177 | LFDGPFPHLFPT | 0.718 ± 0.091
178 | RPPPPRLTPPRL | 0.756 ± 0.084
179 | VGGRMGVDEGKG | 0.669 ± 0.02
180 | MCWGSAEAMGFR | 0.663 ± 0.014
181 | VSAYWFLLFGSV | 0.662 ± 0.13
182 | PLRSLRFYTTLS | 0.649 ± 0.018
183 | KREKENIAKSSV | 0.718 ± 0.078
184 | FVSLVGGFVGTV | 0.646 ± 0.037
185 | VFTGVGFVPLVC | 0.5757 ± 0.0034
186 | VFGFLGSLASCR | 0.853 ± 0.2
187 | LPTLPGWKASCL | 0.674 ± 0.032
188 | WSSPCTGGVGKC | 0.63 ± 0.0068
189 | NKRKKKRTEPQP | 0.661 ± 0.013
190 | FSCLRSINRDVG | 0.702 ± 0.044
191 | AGPGGSGGAGEP | 0.68 ± 0.026
192 | KGRLRVGAAGCD | 0.633 ± 0.011
193 | KTSQYKPREKID | 0.736 ± 0.04
194 | AGTIRTTPLTAL | 0.643 ± 0.033
195 | DGSSESRSGTGK | 0.69 ± 0.057
196 | TVSGPKTNLGQA | 0.71 ± 0.14
